Read-outs that look alike come from different tables or passages of the source.
Experiments:
[1] = biological target: T1, human TNFSF9 (R&D Systems; #2295-4L-025/CF) (human, UniProt P41273 71-254, limits assumed); assay: MSD ELISA: TNFSF9 + 1 ug/mL antibody, binding to coated TNFRSF9
T1 construct: also called TNFSF9 (ligand); TNFSF9 ligand

[2] = biological target: T2, human TNFSF9 (hTNFSF9), full length, overexpressed on HEK293T cells (human, UniProt P41273 1-254); assay: cell-based or functional assay
[3] = biological target: T3, cynomolgus TNFSF9 (cTNFSF9), full length, overexpressed on HEK293T cells (cynomolgus); assay: cell-based or functional assay
[4] = biological target: T4, cynomolgus TNFSF9 (cTNFSF9) protein, soluble recombinant (cynomolgus); assay: SPR (Biacore)
T4 construct: extracellular domain; also called cynomolgus TNFSF9 protein

[5] = biological target: T5, hTNFSF9-His (monomeric human TNFSF9 extracellular domain with 9x-Histidine tag) (human, UniProt P41273 50-254); assay: SPR (Biacore)
T5 construct: also called hTNFSF9-His protein; monomeric hTNFSF9-His antigen
T5 sequence (P41273 other isoform, or with tags, fused parts or gaps): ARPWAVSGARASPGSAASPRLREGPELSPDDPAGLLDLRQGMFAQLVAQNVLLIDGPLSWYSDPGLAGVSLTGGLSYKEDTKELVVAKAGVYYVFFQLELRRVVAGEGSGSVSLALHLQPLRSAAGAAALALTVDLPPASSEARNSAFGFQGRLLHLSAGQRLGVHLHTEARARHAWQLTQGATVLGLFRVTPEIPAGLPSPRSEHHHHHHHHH

[6] = biological target: T4, cynomolgus TNFSF9 (cTNFSF9) protein, …; assay: SPR (Biacore); remark: listed apart in the source
[7] = biological target: T5, hTNFSF9-His (monomeric human TNFSF9 …); assay: SPR (Biacore); remark: listed apart in the source
[8] = biological target: T1, human TNFSF9 (R&D Systems; …); assay: MSD ELISA: TNFSF9 + 1 ug/mL antibody, binding to coated TNFRSF9; remark: listed apart in the source
[9] = biological target: T2, human TNFSF9 (hTNFSF9), full length, …; assay: cell-based or functional assay; remark: listed apart in the source
[10] = biological target: T3, cynomolgus TNFSF9 (cTNFSF9), full …; assay: cell-based or functional assay; remark: listed apart in the source

T1 sequence (P41273 71-254 limits assumed): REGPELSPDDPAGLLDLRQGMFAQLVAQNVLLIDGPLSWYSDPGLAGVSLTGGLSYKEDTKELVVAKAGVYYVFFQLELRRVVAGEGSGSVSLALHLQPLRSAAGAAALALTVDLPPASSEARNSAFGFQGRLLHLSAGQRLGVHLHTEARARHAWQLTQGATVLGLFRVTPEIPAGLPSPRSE

B1: SC113.36 (antibody, mouse IgG1, V domains shown)
VH: QVQLKESGPDLVAPSQSLSITCTVSGFSLTSYGVHWVRQPPGKGLEWLGVIWAGGFTNYNSALMSRLSISKDNSKSQVFLKMSSLQTDDTAMYYCVREKDYRYSHYFDYWGQGTTLTVSS
VL: DIVMSQSPSSLAVSVGEKVTLSCKSSLSLLYSSNQENYLAWYQQKPGQSPKLLIYWASTRESGVPDRFTGSGSGTDFTLTISSVKAEDLAVYYCQQYYSYPRTFGGGTKLEIK
notes: mouse IgG1
- % inhibition of ligand receptor interaction [1]: 23%
- % live cells, Fab-saporin killing, 250 pM antibody [2]: 17.8%
- % live cells, Fab-saporin killing, 250 pM antibody [3]: 102%
- Kd [4]: 12 nM
- Kd [5]: 3 nM

B2: SC113.51 (antibody, mouse IgG2a, V domains shown)
VH: QVQLKESGPDLVAPSQSLSIICTVSGFSLTSYGVHWVRQSPGKGLEWLGVIWAGGLTNYNSALMSRLSISKDNSKSQVFLKMNSLQTDDTAMYYCVREKDYRYSYYFDYWGQGTTLTVSS
VL: DIVMSQSPSSLAVSVGEKVTLSCKSSLSLLYSSNQENYLAWYQQKPGQSPKLLIYWASTRESGVPDRFTGSGSGTDFTLTISSVKAEDLAVYYCQQYYSYPRTFGGGTKLEIK
notes: mouse IgG2a
- Kd [6]: 28 nM
- Kd [7]: 3 nM
- % inhibition of ligand receptor interaction [8]: 99%
- % live cells, Fab-saporin killing, 250 pM antibody [9]: 15.5%
- % live cells, Fab-saporin killing, 250 pM antibody [10]: 108%

B3: SC113.57 (antibody, V domains shown)
VH: QVQLKQSGPGLVPPSQSLSISCTVSGFSLTTYGVHWVRQSPGKGLEWLGVIWSGGTTDDNAAFISRVSITKDNSKSQVFFKMNSLQADDTAIYYCAKNSYYGNLHYYTMDYWGQGTSVTVSS
VL: not shown
notes: Murine hybridoma antibody with kappa light chain; also called SC113.57 capture antibody
- % inhibition of ligand receptor interaction [1]: -35%
- Kd [6]: 4 nM
- Kd [7]: 5 nM
- % live cells, Fab-saporin killing, 250 pM antibody [9]: 11.6%
- % live cells, Fab-saporin killing, 250 pM antibody [10]: 9.3%

B4: SC113.61 (antibody, V domains shown)
VH: EVQLVESGGDLVKPGGSLKLSCAASGFTFSNYGMSWVRQTPDKRLEWVATISNGGISTYYPDSVKGRFTISRDNAKNTLYLQMNSLKSEDTAMYYCVRPGRGYFDYWGQGTTLTVSS
VL: DIVMTQAAPSVPVTPGESVSISCRSNKSLLHSDGNTYLYWFLQRPGQSPQLLIYRMSNLASGVPDRFSGSGSGTAFTLRISRVEAEDVGVYYCMQHLEYPWTFGGGTKLEIK
modifications: MSD SULFO-TAG NHS Ester label on amines (sites not given)
notes: Murine hybridoma antibody, sulfo-tagged for use as detection antibody; The label may sit on either chain; also called SC113.61 detection antibody
- Kd [6]: 11 nM
- Kd [7]: 6 nM
- % inhibition of ligand receptor interaction [8]: 48%
- % live cells, Fab-saporin killing, 250 pM antibody [9]: 23%
- % live cells, Fab-saporin killing, 250 pM antibody [10]: 29%

B5: SC113.70 (antibody, mouse IgG2b, V domains shown)
VH: DVQLQESGPDLVKPSQSLSLTCTVTGYSITSGYTWHWIRQFPGNKLEWMGYIIYSGGTNYNPSLKSRISITRDTSKNQFFLQLNSVTPEDTATYYCASLLRPLDYWGQGTTLTVSS
VL: DIVMTQAAPSVPVTPGESVSISCRSSKSLLHSNGDTFLYWFLQRPGQSPQLLIYRMSNLASGVPDRFSGSGSGTAFTLRISRVEAEDVGVYYCMQHLEYPFTFGAGTKLELK
notes: mouse IgG2b
- % inhibition of ligand receptor interaction [1]: 46%
- Kd [6]: 81 nM
- Kd [7]: 11 nM
- % live cells, Fab-saporin killing, 250 pM antibody [9]: 95.1%
- % live cells, Fab-saporin killing, 250 pM antibody [10]: 101%

B6: SC113.35 (antibody, mouse IgG2b, V domains shown)
VH: DVQLQESGPDLVKPSQSLSLTCTVTGYSITSGYGWHWIRQFPGNKLEWMGYIDYSGNNNYNPSLKSRISITRDTSKNQLFLQLNSVTAEDTATYFCARIYYDAMDYWGQGTSVTVSS
VL: DIVMTQSHKFMSTSVGERVSITCKASQDVGGAVAWYQQKPGQSPKLLIYWASTRHTGVPDRFTGSGSGTDFTLTISNVQSEDLADYFCQQYSSYPLTFGAGTKLDLK
notes: mouse IgG2b
- % live cells, Fab-saporin killing, 250 pM antibody [2]: 28.5%
- % live cells, Fab-saporin killing, 250 pM antibody [3]: 69.6%
- Kd [4]: 10 nM
- Kd [5]: 4 nM
- % inhibition of ligand receptor interaction [8]: 73%

B7: SC113.46 (antibody, V domains shown)
VH: QIQLVQSGPELKKPGETVKISCKASGYSFTNYGMNWVKQTPRKGLKWVGWINTYTGETTYADDFKGRFAFSLETSASTAYLQINNLKNEDMATYFCARIYGYGWFAYWGQGTLVTVSA
VL: DIQMTQSPSSLSASLGERVSLTCRASQEISGYLSWLQQKPDGTIKRLIYAASTLDSGAPKRFSGSRSGSDYSLIISSLESEDFADYYCLQYSSYPYTFGGGTKLEIK
notes: mouse antibody, isotype N/A
- % live cells, Fab-saporin killing, 250 pM antibody [2]: 28.3%
- % live cells, Fab-saporin killing, 250 pM antibody [3]: 31.3%
- Kd [4]: 16 nM
- Kd [5]: 4 nM

B8: SC113.153 (antibody, V domains shown)
VH: QVQLKQSGPGLVQPSQSLSITCTVSGFSLTSYGVHWVRQSPGKGLEWLGVIWSGGSTDDNAAFISRLSISKDNSKSQVFFKMNSLQADDTAIYYCARNYYYDGRYYAMDYWGQGTSVTVSS
VL: DIVLTQSPASLAVSLGQRATISCRASESVEYYGTSLMQWYQQKPGQPPKLLIYVASNVESGVPVRFSGSGSGTDFSLNIHPVEEDDIAMYFCQQSRKVPWTFGGGTKLEIK
notes: Murine hybridoma antibody
- % inhibition of ligand receptor interaction [1]: -84%

B9: SC113.148 (antibody, V domains shown)
VH: QVQLKQSGPGPVQPSQSLSITCTVSGFSLTSYGVHWVRQSPGKGLEWLGVIWSGGSTDDNAAFISRMSITKDNSKSQVFLKMNSLQADDTAKYYCARNYYYEGRYYVMDYWGQGTSVIVSS
VL: DIVLTQSPVSLAVSLGQRATISCRASESVEYYGTSLMQWYQQKPGQPPKLLIYAASNVESGVPARFSGSGSGTDFSLNIHPVEEDDIAMYFCQQSRKVPWTFGGGTKLEIK
- % inhibition of ligand receptor interaction [1]: -63%

B10: SC113.201 (antibody, V domains shown)
VH: QVQLKQSGPSLVQPSQSLSITCTVSGFSLTNYGVHWVRQSPGKGLEWLGVIWRGGGTDSNAAFMSRLTITKDNSKSQVFFKMSSLQADDTAIYYCAKNTRYDARGYYAMDYWGQGTSVTVSS
VL: not shown
- % inhibition of ligand receptor interaction [1]: -66%

B11: huSC113.57 (antibody, V domains shown)
VH: QVTLKESGPVLVKPTETLTLTCTVSGFSLSTYGVHWIRQPPGKALEWLAVIWSGGTTDDNAAFISRVTISKDNSKSQVVLTMTNMDPVDTATYYCARNSYYGNLHYYTMDYWGQGTTVTVSS
VL: EIVLTQSPATLSLSPGERATLSCRASESVDSYGISFLNWYQQKPGQAPRLLIYAASNQGSGIPARFSGSGSGTDFTLTISSLEPEDFAVYYCQQSKEVPWTFGGGTKVEIK
notes: also called hSC113.57 (humanized SC113.57)
- % inhibition of ligand receptor interaction [1]: -38%

B12: SC113.219 (antibody, V domains shown)
VH: QVQLKQSGAELVRPGASVKLSCRASGYTFTDFYINWVKQRPGQGLEWIARIYPGSGNTHYNENFKGKATLTAEKSSSTAYMQLSSLTSEDSAVYFCAREVWDAMDHWGQGTSVTVSS
VL: SIVMTQSPKSMSISVGERVTLSCKASENVGTYVSWYQQKPEQSPKLLIYGASNRYTGVPDRFTGSGSSAEFTLTISSVQAEDLADYYCGQSSSFPIFTFGTGAKLEIK
- % inhibition of ligand receptor interaction [1]: -37%

B13: SC113.133 (antibody, V domains shown)
VH: QVQLQQSGAELVRPGSSVKISCKASGYAFSSSWINWVKQRPGQGLEWIGQIYPGDGDTNYNGKFKGKATLTADKSSNTAYLQLNSLTSEDSAVYFCARTPIFAYWGQGTLVTVSA
VL: DIQMTQSPSSLSASLGERVSLTCRASQEISGYLTWLQQKPDGTIKRLIYAASILDSGVPKRFSGSRSGSDYSLTISSLESEDFADYYCLQYASYPWTFGGGTKLEIK
- % inhibition of ligand receptor interaction [8]: 66%

B14: SC113.121 (antibody, V domains shown)
VH: EVQLQQSGAELVKPGASVNLSCTASGFNIKDYYMHWMKQRPEQGLEWIGRIDPENGETRYAPKFQDKATITADTSSNTAYLQLRSLTSEDTAIYYCGRLDFYFDFWGQGTTLTVSS
VL: QIVLSQSPAILSASPGEKVTMTCRASSSVSYMHWYQQKPGSSPKPWIYATSNLASGVPARFSGSGSGTSYSLTISRVEAEDAATYYCQQWSSNPPTFGSGTKLEIK
- % inhibition of ligand receptor interaction [8]: 98%

B15: SC113.150 (antibody, V domains shown)
VH: EVQLQQSGAELVKPGASVKLSCTASGFNIKDYYLHWMKQRPEQGLEWIGRIDPENGETRYGPKFQGKATITADASSNTAYLQLRSLTSEDTAIYYCGRLDFYFDYWGQGTTLTVSS
VL: QIVLSQSPAILSASPGERVTMTCRASSSVNYIHWYQQKPGSSPKPWIYATSNLASGVPARFSGSGSGTSYSLTISRMEAEDAATYYCQQWSSNPPTFGSGTKLAIK
- % inhibition of ligand receptor interaction [8]: 98%

B16: SC113.167 (antibody, V domains shown)
VH: EVQLQQSGAELVKPGASVKLSCTASGFNIKDYYMHWVKQRPEQGLYWIGRIDPEAGETRYAPNFQGKATITADTSSNTAYLQLRSLTSEDTAIYYCARLDFYFDSWGQGTTLTVSS
VL: QIVLSQSPAILSASPGEKVTMTCRASSSVSYMHWYQQKPGSSPKPWIYATSNLASGVPGRFSGSGSGTSYSLTISRVEAEDTATYYCQQWFTNPPTFGSGTKLEIK
- % inhibition of ligand receptor interaction [8]: 89%

— US20190016812A1 (AbbVie / Abbott, published 2019)
